Assay results taken from patent US6602850B1, “Method of treating asthma using soluble IL-9 receptor variants” (Genaera Corporation, priority 1996, dated 2003).

B1: ΔQ173 variant: splice variant of the IL-9R wherein the glutamine residue at position 173 of the precursor protein has been deleted (SEQ ID NO 3) (protein)
chain: SVTGEGQGPRSRTFTCLTNNILRIDCHWSAPELGQGSSPWLLFTSNQAPGGTHKCILRGSECTVVLPPEAVLVPSDNFTITFHHCMSGREQVSLVDPEYLPRRHVKLDPPSDLQSNISSGHCILTWSISPALEPMTTLLSYELAFKKQEEAWEAQHRDHIVGVTWLILEAFELDPGFIHEARLRVQMATLEDDVVEEERYTGQWSEWSQPVCFQAPQRQGPLIPPWGWPGNTLVAVSIFLLLTGPTYLLFKLSPRVKRIFYQNVPSPAMFFQPLYSVHNGNFQTWMGAHRAGVLLSQDCAGTPQGALEPCVQEATALLTCGPARPWKSVALEEEQEGPGTRLPGNLSSEDVLPAGCTEWRVQTLAYLPQEDWAPTSLTRPAPPDSEGSRSSSSSSSSSNNNNYCALGCYGGWHLSALPGNTQSSGPIPALACGLSCDHQGLETQQGVAWVLAGHCQRPGLHEDLQGMLLPSVLSKARSWTF
B2: IL-9R: wild type human IL-9 receptor, Arg allele at codon 344 with 8 Ser/4 Asn repeats (SEQ ID NO 1) (protein)
chain: SVTGEGQGPRSRTFTCLTNNILRIDCHWSAPELGQGSSPWLLFTSNQAPGGTHKCILRGSECTVVLPPEAVLVPSDNFTITFHHCMSGREQVSLVDPEYLPRRHVKLDPPSDLQSNISSGHCILTWSISPALEPMTTLLSYELAFKKQEEAWEQAQHRDHIVGVTWLILEAFELDPGFIHEARLRVQMATLEDDVVEEERYTGQWSEWSQPVCFQAPQRQGPLIPPWGWPGNTLVAVSIFLLLTGPTYLLFKLSPRVKRIFYQNVPSPAMFFQPLYSVHNGNFQTWMGAHRAGVLLSQDCAGTPQGALEPCVQEATALLTCGPARPWKSVALEEEQEGPGTRLPGNLSSEDVLPAGCTEWRVQTLAYLPQEDWAPTSLTRPAPPDSEGSRSSSSSSSSSNNNNYCALGCYGGWHLSALPGNTQSSGPIPALACGLSCDHQGLETQQGVAWVLAGHCQRPGLHEDLQGMLLPSVLSKARSWTF

Tests used:
Jak-Stat pathway = assay: Tyrosine phosphorylation of Jak, Stat and Irs family members in TS1 cells expressing human IL-9 receptor variants, after IL-9 stimulation; type: cell-based; conditions: TS1 cells expressing the receptor form, starved 6 hours, treated 5 minutes with human or murine IL-9 (100 ng/ml), FIG. 15
Method: (§1) To determine growth response of TS1 cells expressing various forms of human IL-9 receptor, cells were washed with PBS and resuspended in D-MEM, 10% fetal bovine serum. 10^3 cells per well were seeded in triplicate in 96-well microplates and, where appropriate, recombinant human IL-9 or murine IL-9 (R&D Systems, Minneapolis, Minn.) was added at a final concentration of 5 ng/ml. Cell proliferation was evaluated after 7 days using an acid phosphatase assay. Briefly, 50 μl of a buffer containing 0.1 M sodium acetate (pH 5.5), 0.1% Triton X-100 and 10 mM p-nitrophenyl phosphate (Sigma 104 phosphatase substrate) was added per well. The plate was incubated for 1-½ hours at room temperature, the reaction stopped with 10 μl/well of 1N sodium hydroxide and the absorbance was read on a Dynatech Model MR600 at 410 nm. To analyze tyrosine-phosphorylation of proteins of the signal transduction cascade upon cytokine stimulation, TS1 cells expressing various forms of human IL-9 receptor were washed with PBS, resuspended in D-MEM, 0.5% bovine serum albumin, and incubated for 6 hours at 37° C. Successively, 20×10^6 cells were treated for 5 minutes with either human IL-9 or murine IL-9 (100 ng/ml) and immediately washed in cold PBS. Cells were lysed in RIPA buffer as described in Example 11.
Typically, 20-50×10^6cells were lysed in 1 ml of RIPA buffer (PBS containing 1% NP40, 0.5% sodium deoxycholate, 0.1% SDS, 1 mM PMSF, 50 mM sodium fluoride, […] sodium orthovanadate, and 1× “Complete” protease inhibitors mixture, Cat. No. 1697498 Boehringer Mannheim) and incubated for 45 minutes on ice. Lysates were centrifuged for 20 minutes in an Eppendorf microcentrifuge and the supernatant recovered and transferred to a fresh tube. For immunoprecipitations, 1-5 μg of the antibody were added to the lysate and incubated overnight at 4° C. […] Proteins were transferred onto Immobilion-P membrane (Millipore) and detected using a horseradish peroxidase-conjugated secondary antibody followed by a chemiluminescence detection assay (Pierce). […]

TS1 cells = assay: Proliferation of TS1 cells expressing different forms of human IL-9 receptor (acid phosphatase assay); type: cell-based, murine; conditions: TS1 cells expressing the receptor form, IL-9 5 ng/ml, 7 days, FIG. 16
Method: as §1

[1] = listed as splice variant of the IL-9R

Molecule	activation (tyrosine phosphorylation) of proteins of the Jak-Stat pathway (Jak-Stat pathway)	activation (tyrosine phosphorylation) of proteins of the Jak-Stat pathway (Jak-Stat pathway; [1])	cellular proliferation upon IL-9 stimulation (TS1 cells)	cellular proliferation upon IL-9 stimulation (TS1 cells; [1])
B1	could not activate any proteins in the Jak-Stat pathway	not able to transcribe a signal through the Jak-Stat pathway	could not support cellular proliferation upon IL-9 stimulation	unable to induce cellular proliferation upon stimulation with IL-9
B2	all of the proteins of the pathway including Jak3 and Irs1 were phophoralated			
